The target of experiment [1] is recombinant purified multimeric HIV-1 CA tubes assembled from cross-linked CA hexamers (CA A14C/E45C) (HIV-1 (NL4-3)). The experiment is described as follows: co-sedimentation; 20 μL CA tubes (~1.4 μM) mixed with 80 μL clarified HEK293T whole-cell lysate (1.5 mg/mL) in CA binding buffer (10 mM Tris pH 7.4, 1.5 mM MgCl2, 10 mM KCl), 1 h at room temperature; 21,000 x g for 8 min at 4°C; NUP153C detected with anti-HA, signals normalized to input.

Experiment [2] shares this target.
For experiment [3] the target is unchanged. The experiment is described as follows: cross-linking; disulfide cross-linking of purified CA A14C/E45C by dialysis in assembly buffer (25 mM Tris-Cl pH 8.0, 1 M NaCl) with falling β-ME at 4°C; hexamers assessed by SDS-PAGE, tubes by transmission electron microscopy.

For “TRIM-NUP153C-HA G1413W (from UniProt Q0PF16 1-304; P49790 896-1475)”, in experiment [1], the percent bound to CA tubes (cosedimented) was 59%.
Regarding “TRIM-NUP153C-HA T1416M (from UniProt Q0PF16 1-304; P49790 896-1475)”, the HIV-GFP transduction of HEK293T cells expressing TRIM-NUP153C, relative percentage of GFP-positive cells in experiment [2] was found to be 86.8%.
With “TRIM-NUP153C-HA F1417Y (from UniProt Q0PF16 1-304; P49790 896-1475)”, the HIV-GFP transduction of HEK293T cells expressing TRIM-NUP153C, relative percentage of GFP-positive cells in experiment [2] stood at 77.9%.
Consider “TRIM-NUP153C-HA G1418A (from UniProt Q0PF16 1-304; P49790 896-1475)”, for which, in experiment [2], the HIV-GFP transduction of HEK293T cells expressing TRIM-NUP153C, relative percentage of GFP-positive cells came out at 79%.
The same measure, in the same setting: next, “TRIM-NUP153C-HA S1412M (from UniProt Q0PF16 1-304; P49790 896-1475)”: 64.1%; “TRIM-NUP153C-HA G1413M (from UniProt Q0PF16 1-304; P49790 896-1475)”: 61.7%.
Take “TRIM-NUP153C-HA S1412P (from UniProt Q0PF16 1-304; P49790 896-1475)”: the percent bound to CA tubes (cosedimented) in experiment [1] turned out to be 63%.
Regarding “TRIM-NUP153C-HA P1411M (from UniProt Q0PF16 1-304; P49790 896-1475)”, in experiment [2], the HIV-GFP transduction of HEK293T cells expressing TRIM-NUP153C, relative percentage of GFP-positive cells; restriction significantly different from wild type was found to be 67.9%.
As for “recombinant purified multimeric HIV-1 CA tubes assembled from cross-linked CA hexamers (CA A14C/E45C) (natural protein)”, the stoichiometry N (as a rule, a count of units in the complex or per binding partner) in experiment [3] is 6.
As to “TRIM-NUP153C-HA V1414I (from UniProt Q0PF16 1-304; P49790 896-1475)”, in experiment [2], the HIV-GFP transduction of HEK293T cells expressing TRIM-NUP153C, relative percentage of GFP-positive cells amounted to 63.9%.
On to “TRIM-NUP153C-HA F1415M (from UniProt Q0PF16 1-304; P49790 896-1475)”, for which, in experiment [2], the HIV-GFP transduction of HEK293T cells expressing TRIM-NUP153C, relative percentage of GFP-positive cells is 52%.
Consider “TRIM-NUP153C(human)-HA, wild type (from UniProt Q0PF16 1-304; P49790 896-1475)”, for which the percent detected in the pellet fraction with CA tubes in experiment [1] came to 46%. The HIV-GFP transduction of HEK293T cells expressing TRIM-NUP153C, GFP-positive cells relative to the no TRIM control (flow cytometry) in experiment [2] worked out at 53%.

The values above are taken from paper PMC9599535.
